From publication doi:10.1101/2025.09.26.678709, “MRAP2 potentiates GPCR signaling by conserved mechanisms that are disrupted by obesity-associated genetic variants” (bioRxiv, 2025)

Key:
Conditions in all cases: partners not purified
[1] = biological target: T1, HA-Halo-MRAP2 (human, UniProt Q96G30 1-205, CA-Sulfo646 dye on the Halo tag); test: single-molecule pull-down (SiMPull) with photobleaching step counting; two-color: HA-Halo protein (CA-Sulfo646) and FLAG-CLIP protein (BC-DY547) co-expressed in HEK293 (300 ng Halo and 600 ng CLIP plasmid), lysed in 0.5% LMNG/0.05% CHS, captured by biotinylated anti-HA antibody, co-localized spots analysed by TIRF; also reanalysed for monomeric against oligomeric GPCR
T1 construct: melanocortin receptor-2 accessory protein-2 (MRAP2), human; N-terminal signal peptide from rat mGluR2 in the construct; also called melanocortin receptor-2 accessory protein-2; source: HEK293, transfected, in lysate (LMNG-CHS); not shown: HA, N-terminal, kept; Halo, N-terminal, kept
T1 sequence (looked up): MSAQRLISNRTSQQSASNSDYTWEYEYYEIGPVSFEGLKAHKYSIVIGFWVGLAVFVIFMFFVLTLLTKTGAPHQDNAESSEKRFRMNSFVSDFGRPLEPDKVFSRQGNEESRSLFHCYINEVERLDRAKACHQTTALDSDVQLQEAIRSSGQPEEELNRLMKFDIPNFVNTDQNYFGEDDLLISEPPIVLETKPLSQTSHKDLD

[2] = biological target: T2, HA-Halo-GHSR (human, UniProt Q92847 1-366, CA-Sulfo646 dye on the Halo tag); test: as above
T2 construct: growth hormone secretagogue receptor-1a (GHSR), human; N-terminal signal peptide from rat mGluR2 precedes the HA tag in the construct (pRK5 vector); also called ss-HA-Halo-GHSR; growth hormone secretagogue receptor-1a; source: HEK293, transfected, in lysate (LMNG-CHS); not shown: HA, N-terminal, kept; Halo, N-terminal, kept

[3] = biological target: T3, HA-Halo-MC4R (human, UniProt P32245 1-332, CA-Sulfo646 dye on the Halo tag); test: as above
T3 construct: melanocortin receptor-4 (MC4R), human; N-terminal signal peptide from rat mGluR2 in the construct; also called melanocortin receptor 4; source: HEK293, transfected, in lysate (LMNG-CHS); not shown: HA, N-terminal, kept; Halo, N-terminal, kept
T3 sequence (P32245 whole entry): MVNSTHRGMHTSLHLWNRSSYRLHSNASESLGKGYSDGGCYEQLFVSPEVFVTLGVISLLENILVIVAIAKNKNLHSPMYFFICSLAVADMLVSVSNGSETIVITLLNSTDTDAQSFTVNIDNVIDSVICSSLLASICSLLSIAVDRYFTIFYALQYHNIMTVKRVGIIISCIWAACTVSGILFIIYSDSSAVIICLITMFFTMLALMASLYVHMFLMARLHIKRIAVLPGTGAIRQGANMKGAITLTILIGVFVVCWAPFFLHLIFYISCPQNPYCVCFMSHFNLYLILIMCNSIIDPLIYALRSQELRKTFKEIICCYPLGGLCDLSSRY

[4] = biological target: T4, GHSR-LgC (UniProt Q92847 1-366); test: split reporter (BiFC, NanoBiT); HEK293 cells transfected with 100 ng GHSR-LgC and MRAP2-SmC, 48 h, Nano-Glo substrate, 37°C; normalised to cells with LgC-empty and SmC-empty
T4 construct: GHSR cloned into the LgBiT-C plasmid (Promega); also called GHSR with LgBiT at the C-terminus; source: HEK293, transfected, in cells; not shown: LgBiT, C-terminal, kept

B1: FLAG-CLIP-GHSR (receptor, human, UniProt Q92847 1-366, looked up)
chain: MWNATPSEEPGFNLTLADLDWDASPGNDSLGDELLQLFPAPLLAGVTATCVALFVVGIAGNLLTMLVVSRFRELRTTTNLYLSSMAFSDLLIFLCMPLDLVRLWQYRPWNFGDLLCKLFQFVSESCTYATVLTITALSVERYFAICFPLRAKVVVTKGRVKLVIFVIWAVAFCSAGPIFVLVGVEHENGTDPWDTNECRPTEFAVRSGLLTVMVWVSSIFFFLPVFCLTVLYSLIGRKLWRRRRGDAVVGASLRDQNHKQTVKMLAVVVFAFILCWLPFHVGRYLFSKSFEPGSLEIAQISQYCNLVSFVLFYLSAAINPILYNIMSKKYRVAVFRLLGFEPFSQRKLSTLKDESSRAWTESSINT
modifications: BC-DY547 dye on the CLIP tag
notes: growth hormone secretagogue receptor-1a (GHSR), human; N-terminal signal peptide from rat mGluR2 precedes the FLAG tag in the construct (pRK5 vector); also called ss-FLAG-CLIP-GHSR; source: HEK293, transfected, in lysate (LMNG-CHS); not shown: CLIP, N-terminal, kept
[1]
  percent of co-localized spots with 2-step bleaching for MRAP2: 22%
  stoichiometry N: 1 MRAP2 per GHSR

B2: FLAG-CLIP-MRAP2 (natural protein, human, UniProt Q96G30 1-205, looked up)
chain: T1 sequence (looked up)
modifications: BC-DY547 dye on the CLIP tag
notes: melanocortin receptor-2 accessory protein-2 (MRAP2), human; N-terminal signal peptide from rat mGluR2 in the construct; source: HEK293, transfected, in lysate (LMNG-CHS); not shown: CLIP, N-terminal, kept
[2]
  percent of co-localized spots with 2-step bleaching for MRAP2: 27%
  stoichiometry N: 1 MRAP2 per GHSR
[3]
  percent of co-localized spots with 2-step bleaching for MRAP2: 29%
  stoichiometry N: 1 MRAP2 per MC4R

B3: MRAP2-SmC (natural protein, UniProt Q96G30 1-205, looked up)
chain: T1 sequence (looked up)
notes: MRAP2; printed as MRAP2-SmC in the results and SmC-MRAP2 in the methods; also called SmC-MRAP2; source: HEK293, transfected, in cells
[4]
  fold luminescence over negative controls: 400 fold
